Measured values published in patent publication EP1040351B1 (Merck & Co., Inc., dated 2007).

How the values were obtained:
[1] = molecular target: anti-Myc mAb-HRP conjugate (Invitrogen); assay: competition ELISA: anti-Myc mAb-HRP on coated Myc peptide, 10x diluted c-ART-b sample as competitor
[2] = molecular target: T1, human melanocortin-3 receptor (human, UniProt P41968 1-323); assay: displacement of 0.2 nM 125I-NDP-α-MSH from membranes of cells stably expressing human MC3R, filtration
T1 construct: whole, on cells; Membrane preparations of stably expressing cells; also called hMC3R; MC3R

[3] = molecular target: T2, human melanocortin-4 receptor (human, UniProt P32245 1-332); assay: displacement of 0.2 nM 125I-NDP-α-MSH from membranes of cells stably expressing human MC4R, filtration
T2 construct: whole, on cells; Membrane preparations of stably expressing cells; also called hMC4R; MC4R
T2 sequence (P32245 whole entry): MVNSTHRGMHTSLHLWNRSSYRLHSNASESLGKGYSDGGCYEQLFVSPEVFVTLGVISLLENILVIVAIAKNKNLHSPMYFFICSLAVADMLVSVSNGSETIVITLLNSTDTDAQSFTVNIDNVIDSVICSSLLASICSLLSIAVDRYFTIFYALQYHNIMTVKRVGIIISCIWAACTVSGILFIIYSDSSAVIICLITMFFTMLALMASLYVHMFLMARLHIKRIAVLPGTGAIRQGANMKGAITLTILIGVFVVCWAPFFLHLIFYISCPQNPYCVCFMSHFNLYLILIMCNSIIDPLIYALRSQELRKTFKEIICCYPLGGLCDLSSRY

T1 sequence (P41968 whole entry): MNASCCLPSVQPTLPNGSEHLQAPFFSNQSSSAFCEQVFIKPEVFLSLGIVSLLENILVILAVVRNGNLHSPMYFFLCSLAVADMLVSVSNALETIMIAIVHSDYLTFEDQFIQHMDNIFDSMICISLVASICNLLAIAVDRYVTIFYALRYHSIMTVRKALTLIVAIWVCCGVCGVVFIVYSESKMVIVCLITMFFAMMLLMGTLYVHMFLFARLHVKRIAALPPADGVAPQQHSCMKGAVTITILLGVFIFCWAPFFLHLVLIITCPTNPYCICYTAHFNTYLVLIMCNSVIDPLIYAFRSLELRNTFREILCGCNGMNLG

Molecule: c-ART-b (from UniProt O00253 1-26; O00253 76-132) (ligand)
- absorbance [1]: 0.079
- IC50 [2]: 1.9 nM
- IC50 [3]: 1.4 nM

B1: full-length human ART protein (ligand, UniProt O00253 21-132, looked up, not shown: small tags and cut ends)
chain: AQMGLAPMEGIRRPDQALLPELPGLGLRAPLKKTTAEQAEEDLLQEAQALAEVLDLQDREPRSSRRCVRLHESCLGQQVPCCDPCATCYCRFFNAFCYCRKLGTAMNPCSRT
notes: range 1-132; Recombinant ART as described by Fong et al. 1997 (ART cDNA in pcDNA3.1-Myc-His-A); also called full length ART; full-length ART protein
- IC50 [2]: 1 nM
- IC50 [3]: 0.5 nM
